Laboratory results from patent US20100150950A1, “HUMAN ANTIBODIES THAT BIND CD70 AND USES THEREOF” (Medarex, Inc., priority 2006, published 2010).

How the values were obtained:
[1] = target: T1, CD70 on Raji cells (Homo sapiens, UniProt P32970); test: Competition FACS assay with FITC-conjugated 69A7 on Raji cells; assay type: binding; conditions: naked antibody 10 μg/ml, then FITC-conjugated 69A7 10 μg/ml
T1 construct: endogenous in cells; host or cells: Daudi (ATCC CCL-213), HuT 78 (TIB-161), Raji (CCL-86), Granta 519 (DSMZ 342)
T1 sequence (P32970 1-193): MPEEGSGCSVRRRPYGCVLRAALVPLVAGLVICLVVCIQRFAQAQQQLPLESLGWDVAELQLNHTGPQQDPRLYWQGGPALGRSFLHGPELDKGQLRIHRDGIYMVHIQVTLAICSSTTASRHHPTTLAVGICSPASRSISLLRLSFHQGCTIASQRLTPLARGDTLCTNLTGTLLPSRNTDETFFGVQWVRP
Procedure: A competition FACS assay was carried out to elucidate the binding specificity of 69A7 against 2H5. Raji cells were incubated with either naked 69A7, 2H5, an isotype control antibody or no antibody at a concentration of 10 μg/ml. After wash, the cells were incubated with FITC-conjugated 69A7 at a concentration of 10 μg/ml. The cells were washed and binding was detected with a FITC-labeled anti-human IgG Ab. Flow cytometric analyses were performed using a FACSCalibur flow cytometry (Becton Dickinson, San Jose, Calif.).

[2] = tested on: SU-DHL-6 cells; test: ADCC fluorescence cytotoxicity assay, SU-DHL-6; assay type: cell-based, human; conditions: target to effector ratio 1:50
Procedure: In this example, a defucosylated and non-defucosylated anti-CD70 monoclonal antibody was tested for the ability to kill CD70+cells in the presence of effector cells via antibody dependent cellular cytotoxicity (ADCC) in a fluorescence cytotoxicity assay
Human Anti-CD70 monoclonal antibody 2H5 was defucosylated as described above. Human effector cells were prepared from whole blood as follows. Human peripheral blood mononuclear cells were purified from heparinized whole blood by standard Ficoll-paque separation. The cells were resuspended in RPMI1640 media containing 10% FBS (culture media) and 200 U/ml of human IL-2 and incubated overnight at 37° C. The following day, the cells were collected and washed once in culture media and resuspended at 2×10^7 cells/ml. […]
The CD70+ cell lines ARH-77 (human B lymphoblast leukemia; ATCC Accession No. CRL-1621), MEC-1 (human chronic B cell leukemia; DSMZ Accession No. ACC 497), SU-DHL-6 (human B cell lymphoma, DSMZ Accession No. Acc572), IM-9 (human B lymphoblast; ATCC Accession No. CCL-159) and HuT 78 (human cutaneous lymphocyte lymphoma; ATCC Accession No. TIB-161), were tested for antibody specific ADCC to the defucosylated and non-defucosylated human anti-CD70 monoclonal antibody 2H5 using the Delfia fluorescence emission analysis as follows. […]

Molecule	blocking of FITC-labeled 69A7 binding [1]	ADCC, % specific lysis of SU-DHL-6 [2]
anti-CD70 human monoclonal antibody 69A7 (antibody, V domains shown, Human IgG from hybridoma; also called HuMAb 69A7; FITC-conjugated 69A7) VH: QVQLQESGPGLVKPSETLSLTCTVSGGSVSSDYYYWSWIRQPPGKGLEWLGYIYYSGSTNYNPSLKSRVTISVDTSKNQFSLKLRSVTTADTAVYYCARGDGDYGGNCFDYWGQGTLVTVSS VL: EIVLTQSPATLSLSPGERATLSCRASQSVSSYLAWYQQKPGQAPRLLIFDASNRATGIPARFSGSGSGTDFTLTISSLEPEDFAVYYCQQRSNWPLTFGGGTKVEIK	blocked binding	–
2H5 NF: 2H5 HuMAb lacking fucosyl residues, expressed in CHO cell line Ms704-PF (antibody, V domains shown) VH: QVQLVESGGGVVQPGRSLRLSCAASGFTFSSYIMHWVRQAPGKGLEWVAVISYDGRNKYYADSVKGRFTISRDNSKNTLYLQMNSLRAEDTAVYYCARDTDGYDFDYWGQGTLVTVSS VL: EIVLTQSPATLSLSPGERATLSCRASQSVSSYLAWYQQKPGQAPRLLIYDASNRATGIPARFSGSGSGTDFTLTISSLEPEDFAVYYCQQRTNWPLTFGGGTKVEIK	–	increased percentage of specific lysis
